The text below walks through data of publication PMC4359366, “Lis1 regulates dynein by sterically blocking its mechanochemical cycle” (eLife, 2014).

Positions count from the first letter of the chain named. In names and notes the source's numbering stands.

Assay [1] addresses GST-dynein_(331kDa) (S. cerevisiae). Briefly: SEC; 400–800 nM dynein and 475–800 nM Lis1 mixed for 10 min at 4°C; Superose 6 PC 3.2/30; 50 mM Tris–HCl pH 8.0, 150 mM potassium acetate, 2 mM magnesium acetate, 1 mM EGTA, 1 mM DTT; fractions on SDS-PAGE with SYPRO Red, bands quantified in ImageJ.
Assay [2] has as its target T1, short linker dynein, DYN1_(314kDa), without GFP (S. cerevisiae, UniProt P36022 1365-4092).
T1 construct: ZZ tag probably cut off by Tev; also called short linker construct
The assay can be described thus: cryo-EM structure; cryo-negative stain EM, single-particle 3D reconstruction; monomeric dynein (80–120 nM) pre-incubated for 10 min with Lis1 dimer at a 1.5-fold excess (120–180 nM); no nucleotide (apyrase 0.14 U/ml, 15 min); 2% uranyl formate. Conditions: both partners purified.

The target in assay [3] is monomeric dynein motor domain, dynein_(331kDa) without tags on the linker (S. cerevisiae). The description is as above.
Assay [4] has as its target T2, short linker dynein DYN1_(314kDa) K3438E, R3445E, F3446D (AAA5 linker-docking mutant), monomeric (S. cerevisiae, UniProt P36022 1365-4092, K3438E | R3445E | F3446D).
T2 construct: Cytoplasmic dynein heavy chain (DYN1), S. cerevisiae, 314 kDa motor construct DYN1_(314kDa) (linker truncated at residue 1365) with the AAA5 mutations; also called short linker dynein with AAA5 mutations; GFP-3xHA-DYN1_(314kDa)^K3438E,R3445E,F3446D-gs-DHA
The assay can be described thus: SEC; 400–800 nM dynein and 475–800 nM Lis1 mixed for 10 min at 4°C; Superose 6 PC 3.2/30; 50 mM Tris–HCl pH 8.0, 150 mM potassium acetate, 2 mM magnesium acetate, 1 mM EGTA, 1 mM DTT; fractions on SDS-PAGE with SYPRO Red, bands quantified in ImageJ. The note with it: both partners purified. (In general: In gel filtration, larger molecules generally elute earlier.)

In assay [5] the target is T3, short linker dynein, GFP-3xHA-DYN1_(314kDa)-gs-DHA, monomeric (S. cerevisiae, UniProt P36022 1365-4092).
T3 construct: ZZ tag probably cut off by Tev; also called monomeric short linker dynein; short linker construct; not shown: GFP, N-terminal, kept; 3xHA, N-terminal, kept
T3 sequence (P36022 1365-4092): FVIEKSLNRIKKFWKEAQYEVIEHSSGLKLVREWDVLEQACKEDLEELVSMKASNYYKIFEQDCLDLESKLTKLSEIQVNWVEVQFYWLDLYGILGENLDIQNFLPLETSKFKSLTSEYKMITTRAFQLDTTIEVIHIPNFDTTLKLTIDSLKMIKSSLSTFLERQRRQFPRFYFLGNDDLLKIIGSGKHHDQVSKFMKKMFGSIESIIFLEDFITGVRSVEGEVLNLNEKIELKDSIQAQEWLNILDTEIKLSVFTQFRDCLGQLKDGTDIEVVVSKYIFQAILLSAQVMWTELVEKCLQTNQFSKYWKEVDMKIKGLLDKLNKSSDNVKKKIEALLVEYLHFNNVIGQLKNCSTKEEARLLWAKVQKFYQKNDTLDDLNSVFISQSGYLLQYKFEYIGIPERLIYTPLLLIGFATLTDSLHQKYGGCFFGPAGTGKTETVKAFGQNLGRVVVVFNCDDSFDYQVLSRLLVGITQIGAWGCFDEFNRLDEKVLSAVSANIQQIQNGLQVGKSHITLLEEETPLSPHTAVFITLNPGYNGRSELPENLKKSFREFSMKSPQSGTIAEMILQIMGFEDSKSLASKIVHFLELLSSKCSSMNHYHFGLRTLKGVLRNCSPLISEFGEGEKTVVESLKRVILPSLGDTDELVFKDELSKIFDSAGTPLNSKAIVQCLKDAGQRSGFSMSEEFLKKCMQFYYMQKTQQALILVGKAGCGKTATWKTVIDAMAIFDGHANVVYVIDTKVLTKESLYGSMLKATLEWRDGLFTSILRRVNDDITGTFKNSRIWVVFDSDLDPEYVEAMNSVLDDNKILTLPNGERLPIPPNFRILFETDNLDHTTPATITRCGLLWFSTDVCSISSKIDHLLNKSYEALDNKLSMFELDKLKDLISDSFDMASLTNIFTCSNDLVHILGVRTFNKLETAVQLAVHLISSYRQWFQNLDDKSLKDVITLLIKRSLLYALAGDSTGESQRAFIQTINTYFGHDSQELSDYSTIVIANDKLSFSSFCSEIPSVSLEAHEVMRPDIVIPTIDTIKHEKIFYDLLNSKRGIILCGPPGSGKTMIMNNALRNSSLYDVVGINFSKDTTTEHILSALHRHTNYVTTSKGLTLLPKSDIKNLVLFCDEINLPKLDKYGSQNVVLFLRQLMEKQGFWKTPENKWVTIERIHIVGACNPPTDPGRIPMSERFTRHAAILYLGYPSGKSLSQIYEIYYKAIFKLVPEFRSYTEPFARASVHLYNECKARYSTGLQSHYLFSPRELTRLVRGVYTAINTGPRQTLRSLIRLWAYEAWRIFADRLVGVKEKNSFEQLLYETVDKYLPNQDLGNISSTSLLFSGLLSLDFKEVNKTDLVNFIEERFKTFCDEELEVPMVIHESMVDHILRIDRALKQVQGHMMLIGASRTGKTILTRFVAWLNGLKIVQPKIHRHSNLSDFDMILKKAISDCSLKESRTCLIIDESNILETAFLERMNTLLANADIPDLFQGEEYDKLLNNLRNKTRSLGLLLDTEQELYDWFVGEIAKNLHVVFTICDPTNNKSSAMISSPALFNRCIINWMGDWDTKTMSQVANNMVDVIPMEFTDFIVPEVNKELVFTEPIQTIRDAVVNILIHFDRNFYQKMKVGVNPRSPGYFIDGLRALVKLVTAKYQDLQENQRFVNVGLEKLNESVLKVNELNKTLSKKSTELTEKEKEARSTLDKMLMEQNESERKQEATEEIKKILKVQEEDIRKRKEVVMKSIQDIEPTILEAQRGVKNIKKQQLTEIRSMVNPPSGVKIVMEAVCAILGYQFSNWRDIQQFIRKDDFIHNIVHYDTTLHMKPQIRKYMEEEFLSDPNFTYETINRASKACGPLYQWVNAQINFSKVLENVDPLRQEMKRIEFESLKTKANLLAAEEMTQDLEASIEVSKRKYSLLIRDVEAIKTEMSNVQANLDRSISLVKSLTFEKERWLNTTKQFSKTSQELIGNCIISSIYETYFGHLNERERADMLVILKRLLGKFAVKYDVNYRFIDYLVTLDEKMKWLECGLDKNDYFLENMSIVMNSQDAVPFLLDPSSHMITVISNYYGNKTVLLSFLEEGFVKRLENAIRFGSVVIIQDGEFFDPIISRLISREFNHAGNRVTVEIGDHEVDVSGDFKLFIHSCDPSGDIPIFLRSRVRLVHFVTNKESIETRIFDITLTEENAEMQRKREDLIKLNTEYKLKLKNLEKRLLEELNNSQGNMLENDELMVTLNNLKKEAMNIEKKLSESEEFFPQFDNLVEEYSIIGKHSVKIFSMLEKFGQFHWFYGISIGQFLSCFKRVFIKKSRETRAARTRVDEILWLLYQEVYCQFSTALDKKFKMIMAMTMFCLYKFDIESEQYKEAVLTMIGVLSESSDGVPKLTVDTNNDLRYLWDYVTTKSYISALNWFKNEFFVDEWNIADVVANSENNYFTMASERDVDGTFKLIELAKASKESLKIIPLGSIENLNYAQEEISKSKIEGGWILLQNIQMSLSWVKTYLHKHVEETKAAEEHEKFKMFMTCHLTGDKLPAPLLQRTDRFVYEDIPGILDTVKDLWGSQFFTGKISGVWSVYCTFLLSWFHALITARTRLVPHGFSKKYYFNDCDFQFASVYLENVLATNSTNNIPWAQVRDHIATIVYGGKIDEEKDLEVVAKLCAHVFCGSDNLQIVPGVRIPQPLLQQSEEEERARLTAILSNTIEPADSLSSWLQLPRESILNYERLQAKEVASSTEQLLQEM
The assay is described as above. Conditions: both partners purified.

T2 sequence (P36022 1365-4092 K3438E/R3445E/F3446D): as the sequence (P36022 1365-4092) above, with K2074E, R2081E, F2082D counted along it
T1 sequence (P36022 1365-4092): as the sequence (P36022 1365-4092) above

B1: Lis1^R301A (natural protein)
chain: MTNWQQQLPLTDTQKNELDKSVLRYLNWNYKQTVRHEHAQDYESVRHAIVTLSGFLLQESVDRQEFISNNDTSNESMVDIDELLLPKKWNSIVRLQKKIIELEQNTETLVSQIKDLNTQVSELAQFKPTTSNGTSAHNVLKWIPRNLPSCLINVESSVTSVKLHPNLPIVFVATDHGKLYAFDLFNYTIPLASLQSHTKAITSMDVLFTNYTNSSKKNYLVIVTASKDLQIHVFKWVSEECKFQQIRSLLGHEHIVSAVKIWQKNNDVHIASCSRDQTVKIWDFHNGWSLKTFQPHSQWVASIDVLGDYIISGSHDTTLRLTHWPSGNGLSVGTGHEFPIEKVKFIHFIEDSPEIRFRTPSTDRYKNWGMQYCVSASRDRTIKIWEIPLPTLMAHRAPIPNPTDSNFRCVLTLKGHLSWVRDISIRGQYLFSCADDKSVRCWDLNTGQCLHVWEKLHTGFVNCLDLDVDFDSNVTPRQMMVTGGLDCKSNVFMR
For the molecule B1, in assay [1], the GST-dynein (331kDa) share of the dynein:Lis1 band ratio in the SEC complex peak turned out to be 0.88 and the Lis1 share of the dynein:Lis1 band ratio in the SEC complex peak came out at 0.12.

B2: Lis1^R275A (natural protein)
chain: B1 chain with R275A, A301R
For the molecule B2, in assay [1], the GST-dynein (331kDa) share of the dynein:Lis1 band ratio in the SEC complex peak stood at 0.85 and the Lis1 share of the dynein:Lis1 band ratio in the SEC complex peak is 0.15.

B3: Lis1^K437A (natural protein)
chain: B1 chain with A301R, K437A
As for B3, in assay [1], the GST-dynein (331kDa) share of the dynein:Lis1 band ratio in the SEC complex peak stood at 0.85 and the Lis1 share of the dynein:Lis1 band ratio in the SEC complex peak was 0.15.

B4: Lis1 (Pac1), wild type, dimer (natural protein, S. cerevisiae, UniProt P39946 1-494, looked up)
chain: B1 chain with A301R
notes: Lis1 ortholog Pac1 (PAC1), S. cerevisiae; genomic PAC1 copy with ZZ-Tev in front; A Tev site follows the ZZ tag and a TEV buffer is named for the Lis1 purification, so the ZZ tag was probably cut off; also called WT Lis1; wild-type Lis1
With B4, the binding result in assay [2], in assay [4] and in assay [5] was “binds” in each case. Moreover, in assay [1], the GST-dynein (331kDa) share of the dynein:Lis1 band ratio in the SEC complex peak is 0.82. Also, the Lis1 share of the dynein:Lis1 band ratio in the SEC complex peak in assay [1] was found to be 0.18. Besides, in assay [3], the stoichiometry N (Lis1 propeller per dynein motor domain) worked out at 1.
